From article PMC3912200, “Structural and Functional Characterization of Cargo-Binding Sites on the μ4-Subunit of Adaptor Protein Complex 4” (PLoS ONE, 2014)

Key:
[1] = system: cytosolic tail of APP; test: Yeast two-hybrid (Y2H) analysis of μ4 with the APP tail; assay type: binding; conditions: mutations at μ2-binding site; growth on -His plates, 30°C
Description: The cloning of the tail of APP (residues 649–695), full-length human μ4, and all the other yeast two-hybrid (Y2H) constructs, and the cloning of the C-terminal domain of μ4 for expression in E. coli was described previously. To generate a construct for mammalian expression, full-length human μ4 was obtained by PCR amplification and cloned into the EcoRI and SalI sites of pEGFP-N1 (BD BiosciencesClontech, Mountain View, CA) including a stop-codon before the GFP coding sequence. The cloning of APP-GFP carrying the double mutation F615P/D664A was described previously. Single amino acid substitutions were introduced using the QuikChange mutagenesis kit (Stratagene, La Jolla, CA). Y2H assays were performed as previously described. A set of pCI-neo (Promega) constructs encoding hemagglutinin (HA)-epitope tagged wild-type or mutants of human μ4 was a generous gift of J. Bonifacino and R. Mattera (Cell Biology and Metabolism Program, NICHD, NIH). The nucleotide sequences of all recombinant constructs were confirmed by dideoxy sequencing.
Figure 1 Yeast two-hybrid analysis of the interaction of μ4 with the cytosolic tail of APP. (A) Superposition of the surface and ribbon representations of human wild-type μ4 C-terminal domain (pdb entry 3L81). The insets show an enlargement of the μ4-binding site and the putative μ2-binding site with residues chosen for the yeast two-hybrid (Y2H) analysis. The APP peptide (TYKFFEQ; stick model) bound to the μ4-binding site is in yellow, and the EGFR peptide (FYRALM; stick model; pdb entry 1BW8) superposed to the putative μ2-binding site is in magenta. (B) Sequence alignment of the C-terminal domain of the μ subunits of known crystal structure depicting critical residues at the corresponding μ2- and μ4-binding sites. Disordered loops are in yellow letters, and arrows and cylinders represent β-strands and α-helices, respectively. M.m., Mus musculus; R.n., Rattus norvegicus; H.s., Homo sapiens. (C) and (D) Yeast were co-transformed with plasmids encoding Gal4bd fused to the cytosolic tail of the amyloid precursor protein (APP) indicated on the left, and Gal4ad fused to wild-type or mutant μ4 constructs indicated on top of each panel. (C) Y2H analysis of μ4 with mutations on the YKFFE binding site (μ4-binding site). (D) Y2H analysis of μ4 with mutations on a putative YXXØ binding site (μ2-binding site). Mouse p53 fused to Gal4bd and SV40 large T antigen (T Ag) fused to Gal4ad were used as controls. Co-transformed cells were spotted onto His-deficient (-His) or His-containing (+His) plates and incubated at 30°C. Growth is indicative of interactions. Some mutations on either of the two sites affect the interaction of μ4 with the cytosolic tail of APP.

[2] = system: canonical YXXØ signals; conditions: previous reports; ref [31]; cited from earlier work
Description: This tyrosine-based signal is related to the YXXØ motif, which is the signal contained in the cytosolic tail of transmembrane proteins that binds to a different site on the μ2 subunit of AP-2 [28], or on the μ3A subunit of AP-3 [30]. In this study, we wanted to determine whether this putative second binding site on μ4, referred here as the μ2-binding site (Figure 1, A and B), played any role in the binding to the YKFFE signal of APP ...

[3] = system: APP-GFP; test: Distribution of APP-GFP in H4 neuroglioma cells; assay type: cell-based, human; conditions: untagged; 36 h; APP-GFP F615P/D664A; TGN46, EEA1 staining
Experimental: H4 human neuroglioma or MDA-MB-231 human mammary gland epithelial cells obtained from the American Type Culture Collection (Manassas, VA) were maintained in DMEM (H4) or DMEM/F12 (MDA-MB-231) supplemented with 10% (v/v) fetal bovine serum (FBS), 100 U/ml penicillin and 100 µg/ml streptomycin (Life Technologies). Transfections were carried out using Lipofectamine 2000 (Life Technologies) for 1 h at 37°C in the absence of FBS, and cells were analyzed 16, 24 or up to 36-h after transfection, for which we observed no notorious signs of loss in cell viability. SDS-PAGE, immunoblotting, and immunoprecipitation were performed as described. […]
Indirect immunofluorescence staining of fixed, permeabilized cells was performed as previously described, using sheep polyclonal antibody anti-TGN46 (Serotec), and mouse monoclonal antibody anti-EEA1 (BD Biosciences) or rabbit polyclonal antibody anti-EEA1 (Santa Cruz Biotechnology), followed by the secondary antibodies Alexa-647–conjugated donkey anti-mouse IgG, Alexa-594–conjugated donkey anti-rabbit IgG, or Alexa-594– or -647–conjugated donkey anti-sheep IgG (Life Technologies). […] Quantitative analysis of colocalization was performed as we previously described, with minor modifications. […]

[4] = target: T1, recombinant C-terminal domain of human μ4-D190S (human, UniProt O00189 160-453, D190S); test: ITC; 28°C, 50 mM Tris-HCl pH 7.4, 150 mM NaCl; chamber 250–500 µM μ4 construct, peptide 2.5–5.0 mM in 16 injections; one-site model; conditions: both partners purified
T1 construct: also called D190S mutant; source: E. coli B834(DE3)pLysS, purified (glutathione-Sepharose 4B, TEV cleavage, Ni-NTA, Superdex 200); not shown: GST, N-terminal, cleaved
T1 sequence (looked up): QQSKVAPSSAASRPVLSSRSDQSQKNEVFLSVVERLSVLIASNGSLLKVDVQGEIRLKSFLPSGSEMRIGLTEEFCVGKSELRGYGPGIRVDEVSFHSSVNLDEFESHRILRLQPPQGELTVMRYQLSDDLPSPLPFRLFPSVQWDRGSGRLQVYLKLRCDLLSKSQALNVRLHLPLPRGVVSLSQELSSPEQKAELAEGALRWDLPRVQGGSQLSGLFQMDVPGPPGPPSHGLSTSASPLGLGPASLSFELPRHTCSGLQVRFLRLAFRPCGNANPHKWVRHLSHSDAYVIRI

B1: D190A: μ4 mutant, μ2-binding site, Y2H construct (protein)
chain: MISQFFILSSKGDPLIYKDFRGDSGGRDVAELFYRKLTGLPGDESPVVMHHHGRHFIHIRHSGLYLVVTTSENVSPFSLLELLSRLATLLGDYCGSLGEGTISRNVALVYELLDEVLDYGYVQTTSTEMLRNFIQTEAVVSKPFSLFDLSSVGLFGAETQQSKVAPSSAASRPVLSSRSDQSQKNEVFLAVVERLSVLIASNGSLLKVDVQGEIRLKSFLPSGSEMRIGLTEEFCVGKSELRGYGPGIRVDEVSFHSSVNLDEFESHRILRLQPPQGELTVMRYQLSDDLPSPLPFRLFPSVQWDRGSGRLQVYLKLRCDLLSKSQALNVRLHLPLPRGVVSLSQELSSPEQKAELAEGALRWDLPRVQGGSQLSGLFQMDVPGPPGPPSHGLSTSASPLGLGPASLSFELPRHTCSGLQVRFLRLAFRPCGNANPHKWVRHLSHSDAYVIRI
modifications: left off: Gal4 activation domain, end not stated, kept
effect of mutation on interaction of the APP tail with μ4 (Y2H) [1]: abrogated
interaction of μ4 mutant with canonical YXXØ signals [2]: loss of these interactions

B2: µ4-F255A: untagged full-length μ4-F255A, overexpressed (protein, UniProt O00189 1-453, looked up, variant F255A)
chain: MISQFFILSSKGDPLIYKDFRGDSGGRDVAELFYRKLTGLPGDESPVVMHHHGRHFIHIRHSGLYLVVTTSENVSPFSLLELLSRLATLLGDYCGSLGEGTISRNVALVYELLDEVLDYGYVQTTSTEMLRNFIQTEAVVSKPFSLFDLSSVGLFGAETQQSKVAPSSAASRPVLSSRSDQSQKNEVFLDVVERLSVLIASNGSLLKVDVQGEIRLKSFLPSGSEMRIGLTEEFCVGKSELRGYGPGIRVDEVSAHSSVNLDEFESHRILRLQPPQGELTVMRYQLSDDLPSPLPFRLFPSVQWDRGSGRLQVYLKLRCDLLSKSQALNVRLHLPLPRGVVSLSQELSSPEQKAELAEGALRWDLPRVQGGSQLSGLFQMDVPGPPGPPSHGLSTSASPLGLGPASLSFELPRHTCSGLQVRFLRLAFRPCGNANPHKWVRHLSHSDAYVIRI
modifications: full-length
notes: untagged full-length μ4-F255A, overexpressed
APP redistribution (figure title) [3]: APP redistributes from endosomes to the TGN

B3: APP peptide ENPTYKFFEQ (peptide)
peptide: ENPTYKFFEQ
notes: amyloid precursor protein (APP), stretch of the cytosolic tail with the YKFFE signal (Y687 to Q692 printed); numbers count on: APP695; also called APP sorting signal; source: synthetic peptide (New England Peptide)
binding result [4]: binds
